What was measured:
[1] = target: IL-1 receptor (IL-1R) (rat) (UniProt Q02955); test: co-immunoprecipitation, adult ENV-expressing rats, hippocampal synaptosomes, mean±SEM
[2] = target: IL-1 receptor (IL-1R) (rat) (UniProt Q02955); test: co-immunoprecipitation, adult control rats, hippocampal synaptosomes, mean±SEM

Sequence of UniProt Q02955 (Q02955 20-576): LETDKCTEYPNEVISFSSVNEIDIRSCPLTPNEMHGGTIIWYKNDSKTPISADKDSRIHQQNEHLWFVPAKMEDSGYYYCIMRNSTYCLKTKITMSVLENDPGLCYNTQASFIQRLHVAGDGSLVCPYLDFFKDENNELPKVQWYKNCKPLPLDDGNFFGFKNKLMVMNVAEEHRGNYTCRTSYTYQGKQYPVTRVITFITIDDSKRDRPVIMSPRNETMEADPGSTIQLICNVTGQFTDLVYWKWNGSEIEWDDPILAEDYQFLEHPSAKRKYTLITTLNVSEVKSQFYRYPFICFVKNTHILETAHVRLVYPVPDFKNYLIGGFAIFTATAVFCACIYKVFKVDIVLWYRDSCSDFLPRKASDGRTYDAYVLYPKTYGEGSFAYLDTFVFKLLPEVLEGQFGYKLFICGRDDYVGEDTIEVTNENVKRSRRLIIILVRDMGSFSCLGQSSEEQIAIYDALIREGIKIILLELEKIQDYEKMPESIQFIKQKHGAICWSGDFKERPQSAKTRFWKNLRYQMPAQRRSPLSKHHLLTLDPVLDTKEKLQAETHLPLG

co-IP GluN2A/IL-1R (normalised to control animals) [1]	co-IP GluN2A/IL-1R (normalised to control animals) [2]	co-IP GluN2B/IL-1R (normalised to control animals) [1]	co-IP GluN2B/IL-1R (normalised to control animals) [2]	Substance
1.04	1	–	–	GluN2A-NMDAR (GluN2A-containing NMDA receptor) (from UniProt Q00959 23-1464)
–	–	0.95	1	GluN2B-NMDAR (GluN2B-containing NMDA receptor) (from UniProt Q00960 27-1482)

— US20240301040A1
